Changes are numbered by the printed parent chain. Names and notes keep the numbering of the source.
B1: ZmEPSPS-20: maize EPSPS mutant gene/protein, A68D and T102I; contains Table 2 mutant #13; SEQ ID NO. 6 (protein)
chain: AGAEEIVLQPIKEISGTVKLPGSKSLSNRILLLAALSEGTTVVDNLLNSEDVHYMLGALRTLGLSVEXDKAAKRAVVVGCGGKFPVEDAKEEVQLFLGNAGIAMRPLTAAVTAAGGNATYVLDGVPRMRERPIGDLVVGLKQLGADVDCFLGTDCPPVRVNGIGGLPGGKVKLSGSISSQYLSALLMAAPLALGDVEIEIIDKLISIPYVEMTLRLMERFGVKAEHSDSWDRFYIKGGQKYKSPKNAYVEGDASSASYFLAGAAITGGTVTVEGCGTTSLQGDVKFAEVLEMMGAKVTWTETSVTVTGPPREPFGRKHLKAIDVNMNKMPDVAMTLAVVALFADGPTAIRDVASWRVKETERMVAIRTELTKLGASVEEGPDYCIITPPEKLNVTAIDTYDDHRMAMAFSLAACAEVPVTIRDPGCTRKTFPDYFDVLSTFVKN
modifications: Mutated zea mays; (68)..(68) X = D or E
B2: ZmEPSPS-27: maize EPSPS mutant gene/protein, A68E and G101C; contains Table 2 mutant #8; SEQ ID NO. 7 (protein)
chain: B1 chain with G101C, I102T
modifications: Mutated zea mays; (68)..(68) X = D or E

What was measured:
[1] = molecular target: native EPSPS from E. coli (Escherichia coli, UniProt P0A6D3); conditions: read-out: apparent Km for PEP; cited from earlier work
[2] = test system: tobacco leaf discs; test: Screening maize mutants using tobacco regeneration system on glyphosate medium; format: cell-based; conditions: regeneration medium containing 50 nM glyphosate and 200 mg/L Timentin
Experimental: The efficacy of maize mutant genes (Table 2) were tested using a tobacco leaf discs transformation/regeneration system. […] Additionally, a third mutant comprising the mutations of mutant #8 and #13 is possible resulting in an […] mutant.

[3] = test system: T0 transgenic tobacco plants; test: Spray with glyphosate (Touchdown) on ZmEPSPS mutant containing tobacco; format: in vivo; conditions: for tolerance to Touchdown spray: 2× and 4× field rates; for tolerance to Touchdown spray / herbicide damage: 2 weeks post treatment; for herbicide damage: 4× field rates as printed in the text; for Damage: assessed 2 weeks post treatment
Experimental: T0 transgenic tobacco plants were grown on soil for 4 weeks in Conviron growth chambers. These plants were sprayed with 2×, 4× and 8× Touchdown herbicide at 2×, 4× and 8× field rate (1× field rate=1680 g AE/Ha), respectively, and the herbicide damage was assessed 2 weeks post treatment. […]

[4] = Touchdown 2X field rate (1X = 1680 g AE/Ha)
[5] = Touchdown 4X field rate (1X = 1680 g AE/Ha)
[6] = Touchdown 8X field rate (1X = 1680 g AE/Ha)

Sequence of native EPSPS from E. coli (P0A6D3 whole entry): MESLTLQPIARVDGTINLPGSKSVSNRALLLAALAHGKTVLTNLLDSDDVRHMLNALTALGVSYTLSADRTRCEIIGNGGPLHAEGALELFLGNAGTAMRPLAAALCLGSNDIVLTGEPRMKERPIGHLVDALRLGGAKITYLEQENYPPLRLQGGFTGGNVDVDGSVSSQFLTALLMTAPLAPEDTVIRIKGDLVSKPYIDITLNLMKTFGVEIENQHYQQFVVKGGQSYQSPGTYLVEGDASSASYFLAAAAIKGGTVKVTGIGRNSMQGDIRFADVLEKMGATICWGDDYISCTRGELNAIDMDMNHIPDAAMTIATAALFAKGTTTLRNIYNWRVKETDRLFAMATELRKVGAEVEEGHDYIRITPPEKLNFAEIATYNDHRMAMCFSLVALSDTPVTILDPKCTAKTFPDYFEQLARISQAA

Molecule | Km [1] | ability to regenerate on glyphosate media [2] | tolerance to Touchdown spray [3] | herbicide damage [3] | Damage [3, 4] | Damage [3, 5] | Damage [3, 6]
C=C(OP(=O)(O)O)C(=O)O [PEP, phosphoenolpyruvic acid] | 10 µM | – | – | – | – | – | –
B1 | – | tolerant mutants | completely tolerant | only minor damage | No damage | No damage | Minor damage at shoot apex
B2 | – | tolerant mutants | completely tolerant | only minor damage | No damage | No damage | Minor damage, some
